Assay [1] addresses tubulin polymers from porcine brain tubulin fixed with glutaraldehyde (MTs (GA) or zinc-sheets (GA)) (porcine (purified from porcine brain)) (UniProt P02550).
The target of assay [2] is tubulin purified from porcine brain, polymerised without fixation (MTs, zinc-sheets or zinc-macrotubes) (porcine (purified from porcine brain)) (UniProt P02550).
In assay [3] the target is tubulin polymers from porcine brain tubulin fixed with glutaraldehyde (MTs (GA) or zinc-sheets (GA)) (porcine (purified from porcine brain)) (UniProt P02550). This is another data set of the same source.

In the case of “rat kinesin dimer (RK430) fused with GFP (domain or fragment)”, in assay [1], the observed walking length on zinc-sheets (GA) (TIRF) was determined as 500 nm.

In assay [2], “recombinant yeast dynein dimer GFP-GST-Dyn1_(331kDa) (domain or fragment)” registered a velocity of single-molecule movement on MTs (TIRF, from MSD plots; pH 6.8, 25 mM potassium acetate, 1 mM ATP) of 36 nm/s. In assay [3], this substance came in with a velocity of single-molecule movement on MTs (GA) (TIRF, from MSD plots; pH 6.8, 25 mM potassium acetate, 1 mM ATP) of 35 nm/s and a velocity of single-molecule movement on zinc-sheets (GA) (TIRF, from MSD plots; pH 6.8, 25 mM potassium acetate, 1 mM ATP) of 35 nm/s. In assay [1], this substance had an observed walking length on zinc-sheets (GA) (TIRF) of 500 nm.
